# Results published in patent US20110217401.
# Biological target: human apolipoprotein B (apoB) of serum low density lipoprotein particles (UniProt P04114)
# Sequence (P04114 28-4563): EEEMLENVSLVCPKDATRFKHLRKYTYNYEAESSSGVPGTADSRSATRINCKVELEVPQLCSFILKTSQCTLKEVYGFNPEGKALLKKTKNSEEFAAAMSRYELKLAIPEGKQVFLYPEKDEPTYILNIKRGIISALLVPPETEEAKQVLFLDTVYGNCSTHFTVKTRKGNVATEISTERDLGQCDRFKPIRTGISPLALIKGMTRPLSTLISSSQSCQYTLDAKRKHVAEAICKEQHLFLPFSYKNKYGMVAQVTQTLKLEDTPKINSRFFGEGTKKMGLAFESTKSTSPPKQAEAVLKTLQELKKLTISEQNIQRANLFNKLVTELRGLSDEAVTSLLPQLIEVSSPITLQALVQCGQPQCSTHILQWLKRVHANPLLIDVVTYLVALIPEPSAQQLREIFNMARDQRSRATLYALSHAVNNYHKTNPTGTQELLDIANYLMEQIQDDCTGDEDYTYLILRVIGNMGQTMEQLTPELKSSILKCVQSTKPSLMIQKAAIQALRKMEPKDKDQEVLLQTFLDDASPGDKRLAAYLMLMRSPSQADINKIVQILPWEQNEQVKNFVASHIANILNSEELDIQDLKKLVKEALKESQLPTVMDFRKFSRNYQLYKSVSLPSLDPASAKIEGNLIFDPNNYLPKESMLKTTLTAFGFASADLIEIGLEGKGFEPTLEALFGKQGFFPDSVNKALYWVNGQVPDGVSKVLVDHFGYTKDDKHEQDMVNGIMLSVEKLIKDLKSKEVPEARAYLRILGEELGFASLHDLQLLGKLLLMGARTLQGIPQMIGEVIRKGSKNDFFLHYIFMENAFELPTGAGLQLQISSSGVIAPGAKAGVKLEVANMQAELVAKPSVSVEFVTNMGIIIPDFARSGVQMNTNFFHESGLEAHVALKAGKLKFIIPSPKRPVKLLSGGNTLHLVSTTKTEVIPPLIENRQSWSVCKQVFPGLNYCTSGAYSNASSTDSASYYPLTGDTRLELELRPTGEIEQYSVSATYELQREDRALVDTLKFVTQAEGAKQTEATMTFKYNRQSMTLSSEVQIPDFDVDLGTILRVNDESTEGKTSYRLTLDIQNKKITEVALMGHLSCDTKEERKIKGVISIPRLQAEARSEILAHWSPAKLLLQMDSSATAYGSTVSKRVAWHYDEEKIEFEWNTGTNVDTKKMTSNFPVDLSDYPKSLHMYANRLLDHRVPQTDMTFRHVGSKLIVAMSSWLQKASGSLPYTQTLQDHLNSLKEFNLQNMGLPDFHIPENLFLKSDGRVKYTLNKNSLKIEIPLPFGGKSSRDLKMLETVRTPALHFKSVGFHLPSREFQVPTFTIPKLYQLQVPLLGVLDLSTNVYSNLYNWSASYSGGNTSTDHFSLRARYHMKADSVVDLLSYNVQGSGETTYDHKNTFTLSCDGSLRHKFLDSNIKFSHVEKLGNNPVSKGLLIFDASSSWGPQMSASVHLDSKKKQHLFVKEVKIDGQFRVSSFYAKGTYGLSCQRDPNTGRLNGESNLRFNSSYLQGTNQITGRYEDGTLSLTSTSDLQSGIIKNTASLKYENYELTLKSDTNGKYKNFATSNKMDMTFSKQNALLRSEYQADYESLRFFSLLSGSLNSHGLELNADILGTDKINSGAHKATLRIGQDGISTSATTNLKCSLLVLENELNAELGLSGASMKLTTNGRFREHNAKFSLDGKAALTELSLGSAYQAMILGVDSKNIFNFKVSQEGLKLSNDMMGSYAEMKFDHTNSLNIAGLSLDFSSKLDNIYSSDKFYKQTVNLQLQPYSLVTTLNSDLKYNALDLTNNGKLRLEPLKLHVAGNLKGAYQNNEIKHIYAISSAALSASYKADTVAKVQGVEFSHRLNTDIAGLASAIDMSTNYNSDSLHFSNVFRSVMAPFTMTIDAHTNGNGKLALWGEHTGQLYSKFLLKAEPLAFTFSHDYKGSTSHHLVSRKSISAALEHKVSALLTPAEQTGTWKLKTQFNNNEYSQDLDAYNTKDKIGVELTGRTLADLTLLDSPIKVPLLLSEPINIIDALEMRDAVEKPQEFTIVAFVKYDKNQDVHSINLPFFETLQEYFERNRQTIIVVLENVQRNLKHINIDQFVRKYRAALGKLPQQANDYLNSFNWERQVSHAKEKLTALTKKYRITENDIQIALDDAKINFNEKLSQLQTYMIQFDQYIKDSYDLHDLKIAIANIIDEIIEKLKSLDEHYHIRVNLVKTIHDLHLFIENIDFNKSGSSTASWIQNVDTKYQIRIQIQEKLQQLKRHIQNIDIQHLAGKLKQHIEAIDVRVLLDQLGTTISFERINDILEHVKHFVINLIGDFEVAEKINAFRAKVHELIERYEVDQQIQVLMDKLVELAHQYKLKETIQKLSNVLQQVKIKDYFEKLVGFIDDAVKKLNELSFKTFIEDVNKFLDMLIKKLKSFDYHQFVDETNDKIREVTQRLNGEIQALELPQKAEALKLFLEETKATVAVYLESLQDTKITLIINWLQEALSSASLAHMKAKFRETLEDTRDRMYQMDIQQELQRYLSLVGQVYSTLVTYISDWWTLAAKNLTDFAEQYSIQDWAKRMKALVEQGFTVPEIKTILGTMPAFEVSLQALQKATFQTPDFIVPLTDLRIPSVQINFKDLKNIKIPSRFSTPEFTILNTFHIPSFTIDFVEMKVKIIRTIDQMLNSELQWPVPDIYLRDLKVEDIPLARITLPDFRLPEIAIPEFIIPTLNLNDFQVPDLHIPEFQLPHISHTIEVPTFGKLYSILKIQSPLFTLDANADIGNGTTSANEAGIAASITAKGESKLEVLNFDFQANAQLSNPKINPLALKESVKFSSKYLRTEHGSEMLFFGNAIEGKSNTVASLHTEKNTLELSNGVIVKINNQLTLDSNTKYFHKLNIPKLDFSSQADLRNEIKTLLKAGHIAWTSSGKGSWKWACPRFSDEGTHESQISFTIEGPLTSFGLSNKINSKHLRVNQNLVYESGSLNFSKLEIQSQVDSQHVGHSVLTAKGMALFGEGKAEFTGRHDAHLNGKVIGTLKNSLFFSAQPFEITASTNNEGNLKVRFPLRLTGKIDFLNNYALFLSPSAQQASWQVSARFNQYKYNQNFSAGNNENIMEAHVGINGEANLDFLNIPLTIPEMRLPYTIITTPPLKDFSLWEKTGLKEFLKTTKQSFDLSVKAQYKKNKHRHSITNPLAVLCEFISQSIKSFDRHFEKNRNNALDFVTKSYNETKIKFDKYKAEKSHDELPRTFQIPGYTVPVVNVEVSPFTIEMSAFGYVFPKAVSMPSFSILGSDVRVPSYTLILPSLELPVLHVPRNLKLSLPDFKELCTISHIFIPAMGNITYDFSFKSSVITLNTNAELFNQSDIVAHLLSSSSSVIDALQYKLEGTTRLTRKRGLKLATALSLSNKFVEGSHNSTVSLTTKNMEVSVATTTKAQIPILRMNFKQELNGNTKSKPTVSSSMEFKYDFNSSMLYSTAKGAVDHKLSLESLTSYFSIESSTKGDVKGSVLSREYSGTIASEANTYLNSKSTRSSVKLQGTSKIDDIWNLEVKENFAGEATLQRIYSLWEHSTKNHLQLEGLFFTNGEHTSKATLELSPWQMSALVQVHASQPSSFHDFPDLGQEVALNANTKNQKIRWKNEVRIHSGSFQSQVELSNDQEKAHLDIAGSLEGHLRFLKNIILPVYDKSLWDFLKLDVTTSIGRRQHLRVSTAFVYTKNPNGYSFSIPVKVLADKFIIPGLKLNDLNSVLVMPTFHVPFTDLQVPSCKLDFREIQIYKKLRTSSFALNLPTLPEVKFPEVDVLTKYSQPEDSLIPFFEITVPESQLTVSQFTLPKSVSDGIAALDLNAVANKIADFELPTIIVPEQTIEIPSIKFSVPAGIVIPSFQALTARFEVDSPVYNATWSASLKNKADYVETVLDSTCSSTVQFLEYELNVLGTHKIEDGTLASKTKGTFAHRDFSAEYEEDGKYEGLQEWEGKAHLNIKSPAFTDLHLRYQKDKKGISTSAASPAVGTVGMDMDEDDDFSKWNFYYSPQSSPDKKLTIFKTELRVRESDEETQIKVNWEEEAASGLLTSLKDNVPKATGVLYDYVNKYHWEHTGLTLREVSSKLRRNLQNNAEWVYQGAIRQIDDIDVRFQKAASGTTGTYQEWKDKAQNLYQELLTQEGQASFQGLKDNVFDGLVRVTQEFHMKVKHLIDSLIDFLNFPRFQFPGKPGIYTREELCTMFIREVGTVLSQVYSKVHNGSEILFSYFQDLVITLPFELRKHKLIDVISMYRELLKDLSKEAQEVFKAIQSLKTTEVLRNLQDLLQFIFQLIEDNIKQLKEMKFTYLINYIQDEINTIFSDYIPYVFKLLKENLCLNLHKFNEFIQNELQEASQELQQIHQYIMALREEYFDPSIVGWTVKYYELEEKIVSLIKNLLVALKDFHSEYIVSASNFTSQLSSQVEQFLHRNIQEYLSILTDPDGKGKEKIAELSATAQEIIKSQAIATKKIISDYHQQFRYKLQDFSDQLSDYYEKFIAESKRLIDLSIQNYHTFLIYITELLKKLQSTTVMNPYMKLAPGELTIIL
substance,measurement,value
"recombinant arNOX SF2 (recombinant apoBNOX, TM9SF2 expressed in E. coli from pET11a-TM9SF2)","Oxidation of protein thiols of human apoB (DTNB reactivity), nmoles SH oxidized, complete mixture, 2 h (nmoles SH oxidized)",500
same,"Oxidation of protein thiols of human apoB (DTNB reactivity), relative units, complete mixture, 2 h (relative units)",25
